From patent US20140274906A1 (NONO, published 2014)
No end group written: not given here.

T1: ND2 310-321 peptide (human)
T1 peptide: NVKMKWQFEHTK

B1: biotinylated Src 40-58 peptide (peptide)
peptide: KPASADGHRGPSAAFVPAA
modifications: also: biotinylated, position not given here
notes: Probe in dot blots (~15 ug/ml) and ELISA (6 uM); also called biotin-Src 40-58; Biotin-Src 40-58
B2: GST-ND2.1.4 (AA 289-321) (other)
chain: NLYFYLRLIYSTSITLLPMSNNVKMKWQFEHTK
modifications: also: GST fusion, linker and position in fusion not given here
notes: also called ND2 2.1.4; not shown: glutathione S-transferase (GST) fusion partner
B3: Src40-49-Tat (peptide)
peptide: KPASADGHRGYGRKKRRQRRR
B4: Tat-Src40-49 (peptide)
peptide: YGRKKRRQRRRKPASADGHRG
B5: Src40-49 peptide (peptide)
peptide: KPASADGHRG
B6: Src 40-58 peptide (plated, unlabelled) (peptide)
peptide: KPASADGHRGPSAAFVPAA
B7: biotinylated Src40-49 peptide (peptide)
peptide: KPASADGHRG
modifications: also: biotinylated, position not given here
notes: Labelled probe; also called bio-Src 40-49; Bio-Src40-49
B8: biotinylated ND2 310-321 (peptide)
peptide: NVKMKWQFEHTK
modifications: also: biotinylated, position not given here
B9: Tat-ND2 310-321 (peptide)
peptide: YGRKKRRQRRRNVKMKWQFEHTK
B10: biotinylated scrambled Src 40-58 control peptide (peptide)
peptide: AGSHAPFPSPARAGVAPDA
modifications: also: biotinylated, position not given here
notes: Scrambled negative control; also called sSrc 40-58; B-sSRC 40-58

Assays:
[1] = molecular target: T1, ND2 310-321 peptide; assay: ELISA (FIG. 6); ND2 310-321 is the weaker comparator
[2] = molecular target: T2, GST-ND2.1 (AA239-321) (human, UniProt P03891 239-321); assay: ELISA, GST-ND2.1 coated, biotin-Src 40-58 at 6 uM, SA-HRP (FIG. 2C)
T2 construct: not shown: glutathione S-transferase (GST) fusion partner

[3] = molecular target: T3, GST-ND2 (full length ND2) (human, UniProt P03891 1-347); assay: dot blot, GST proteins spotted, probed with biotinylated Src 40-58 (FIG. 1C)
T3 construct: GST fusion protein, expressed and purified; printed as full length ND2; not shown: glutathione S-transferase (GST) fusion partner
T3 sequence (P03891 whole entry, the tested form may be a part): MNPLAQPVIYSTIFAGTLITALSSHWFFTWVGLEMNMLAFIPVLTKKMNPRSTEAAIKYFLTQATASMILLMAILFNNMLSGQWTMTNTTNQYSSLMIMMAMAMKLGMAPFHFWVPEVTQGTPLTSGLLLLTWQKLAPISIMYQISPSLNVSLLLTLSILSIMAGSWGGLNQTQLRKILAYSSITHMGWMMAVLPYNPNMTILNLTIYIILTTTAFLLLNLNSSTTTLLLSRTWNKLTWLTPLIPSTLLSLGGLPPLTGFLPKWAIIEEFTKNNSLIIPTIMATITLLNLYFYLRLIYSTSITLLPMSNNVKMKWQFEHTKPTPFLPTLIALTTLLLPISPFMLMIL

[4] = molecular target: B2; assay: ELISA, GST-ND2.1.4 coated, biotin-Src 40-58 at 6 uM, SA-HRP (FIG. 2C)
[5] = molecular target: B9; assay: ELISA (FIG. 6)
[6] = molecular target: B1; assay: ELISA (FIG. 2C)
[7] = molecular target: B10; assay: dot blot of GST-ND2 constructs (FIG. 2B)
[8] = molecular target: B8; assay: dot blot, Src fragments spotted, probed with Bio-ND2 310-321 (FIG. 5A)
[9] = molecular target: B9; assay: competition ELISA, competitor against biotinylated Src40-49, Tat-ND2 310-321 pre-coated (FIG. 5E)
[10] = molecular target: T1, ND2 310-321 peptide; assay: competition ELISA, competitor against biotinylated Src40-49 (FIG. 5D)
[11] = molecular target: B8; assay: ELISA, Src peptides plated at ~5 uM (FIG. 5B)
[12] = molecular target: B9; assay: ELISA, plate coated with Tat-ND2 310-321 (FIG. 5C)
[13] = molecular target: B6; assay: ELISA (FIG. 5B)
[14] = molecular target: B3; assay: dot blot (FIG. 5A)
[15] = molecular target: B5; assay: dot blot (FIG. 5A)
[16] = molecular target: B4; assay: dot blot (FIG. 5A)
[17] = molecular target: B7; assay: competition ELISA, competitor against coated ND2 310-321 peptide (FIG. 7)
[18] = molecular target: B1; assay: ELISA (FIG. 6)
[19] = molecular target: T3, GST-ND2 (full length ND2); assay: dot blot of GST-ND2 constructs (FIG. 2B)
[20] = molecular target: T2, GST-ND2.1 (AA239-321); assay: dot blot of GST-ND2 constructs (FIG. 2B)

B1: binds [1]; binds [2]; binds [3]. B1: binds [4]; binds [5].

B2: binds [6]; no binding (tested: ~15 ug/ml biotinylated peptide) [7].

B3: binds [8]; binds [9].

B4: binds [8]; binds [10].

B5: binds [8].

B6: binds [11].

B7: binds [12].

B8: binds [13]; binds [14]; binds [15]. B8: binds [16].

B9: binds [17]; binds [18].

B10: no binding (tested: ~15 ug/ml biotinylated peptide) [19]; no binding (tested: ~15 ug/ml biotinylated peptide) [20].

GAAKRPSDGH (also: biotinylated, position not given here, also called Bio-sSrc 40-49; sSrc40-49) [biotinylated scrambled Src 40-49 control peptide]: no binding [12].
